What was measured:
FcγRIIIa (F) variant = FcγRIIIa (F) variant (UniProt P08637); experiment: SPR (ProteOn XPR36), antibody captured on immobilized HER-2, FcγR as analyte, 1:1 Langmuir fit
FcγRIIb = FcγRIIb (UniProt P31994); experiment: as above
UniProt P31994, sequence (P31994 43-217 limits assumed): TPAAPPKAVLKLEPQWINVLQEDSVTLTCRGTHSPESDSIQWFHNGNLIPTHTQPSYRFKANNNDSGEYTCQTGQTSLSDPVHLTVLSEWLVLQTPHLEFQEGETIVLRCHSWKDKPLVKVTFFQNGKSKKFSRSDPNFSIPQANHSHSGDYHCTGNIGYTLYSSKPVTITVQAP

UniProt P08637, sequence (P08637 17-208 limits assumed, change not shown): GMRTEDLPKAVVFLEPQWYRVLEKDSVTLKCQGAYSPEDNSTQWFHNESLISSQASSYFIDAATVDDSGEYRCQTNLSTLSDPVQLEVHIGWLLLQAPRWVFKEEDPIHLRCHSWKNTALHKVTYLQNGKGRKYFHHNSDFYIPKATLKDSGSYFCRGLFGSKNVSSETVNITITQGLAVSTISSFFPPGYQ

Work on “Trastuzumab variant G237F/S298A/A330L/I332E (antibody)” yielded a Kd (FcγRIIIa (F) variant) of 0.429 µM and a Kd (FcγRIIb) of 7.63 µM.

Reference: US20160159921A1
